Measurements: patent publication US20250052751A1, “COMPOSITIONS AND METHODS FOR DIAGNOSING AUTOIMMUNE AQUAPORINOPATHY” (The Regents of the University of California, priority 2023, published 2025)

Target: MHC class II I-A^b molecules purified by affinity chromatography (mouse) (UniProt P14434)
Assay: competitive peptide binding assay on purified I-Ab

IC50: 387 nM
Substance: MOG p35-55 (from UniProt Q61885 63-83)
